Our source for the Relative IC50 (fold of chimeric PTA-2358) and Relative IC50 (fold of chimeric PTA-2357) values is patent publication US20210371516A1.

Changes are numbered by the printed parent chain.

Assay [1] has as its target antigen on NCI-H187 classic small cell lung carcinoma cells (ATCC Number: CRL-5804) recognised by PTA-2358. As to the kind of experiment: competition flow cytometry on NCI-H187 cells against mouse PTA-2358; CHO-K1-derived.
Assay [2] has the same target. Kind of assay: competition flow cytometry on NCI-H187 cells against mouse PTA-2358; NS0-derived. For orientation: Flow cytometry measures light scatter and fluorescence of single cells or particles in a stream.
For assay [3], the target named is antigen on NCI-H187 classic small cell lung carcinoma cells (ATCC Number: CRL-5804) recognised by PTA-2357. As to the kind of experiment: competition flow cytometry on NCI-H187 cells against mouse PTA-2357; NS0-derived.
Assay [4] shares this target. Kind of assay: competition flow cytometry on NCI-H187 cells against mouse PTA-2357; CHO-K1-derived.

B1: PTA-2358 VH1/VK1 IgG1 antibody (antibody, V domains shown)
VH: EVQLVQSGAELKKPGASVKLSCTASGFNIKDYYMHWVKQAPGQGLEWIGWIDPGNGDTECAPKFQGRATLTADTSINTAYLELSRLRSDDTAVYYCNAPYYSGSSHFDYWGQGTTVTVSS
VL: DIVLTQSPDSLAVSLGERATINCRASKSVSASGYSFLHWYQQKPGQPPKLLIYLASNLESGVPDRFSGSGSGTDFTLTISSLQEEDVATYYCQHSRELRTFGQGTKLEIK
For the molecule B1, the Relative IC50 (fold of chimeric PTA-2358) in assay [1] was determined as 1.09; in assay [2] it was 1.11.

B2: PTA-2358 VH5/VK3 IgG1 antibody (antibody, V domains shown)
VH: B1 VH with L11V, L20V, K38R, L70I, N77S, L81M
VL: B1 VL with L4M, E84A, T89V
In assay [1], B2 gave a Relative IC50 (fold of chimeric PTA-2358) greater than 3.

B3: PTA-2358 VH4/VK2 IgG1 antibody (antibody, V domains shown)
VH: B1 VH with L11V, K38R, N77S
VL: B1 VL with E84A
Take B3: the Relative IC50 (fold of chimeric PTA-2358) in assay [1] turned out to be 1.68; in assay [2] it was 1.49.

B4: PTA-2358 VH1/VK2 IgG1 antibody (antibody, V domains shown)
VH: B1 VH
VL: B1 VL with E84A
B4 came in with a Relative IC50 (fold of chimeric PTA-2358) in assay [1] of 2.38.

B5: PTA-2358 VH3/VK3 IgG1 antibody (antibody, V domains shown)
VH: B1 VH with L11V, K38R
VL: B1 VL with L4M, E84A, T89V
In assay [1], B5 registered a Relative IC50 (fold of chimeric PTA-2358) of 2.43.

B6: PTA-2358 VH4/VK1 IgG1 antibody (antibody, V domains shown)
VH: B1 VH with L11V, K38R, N77S
VL: B1 VL
For B6, the Relative IC50 (fold of chimeric PTA-2358) in assay [1] was determined as 1.48; in assay [2], 2.65.

B7: PTA-2358 VH2/VK2 IgG1 antibody (antibody, V domains shown)
VH: B1 VH with L11V
VL: B1 VL with E84A
With B7, the values for the Relative IC50 (fold of chimeric PTA-2358) in assay [1] and in assay [2] were 1.29 and 1.03, respectively.

B8: PTA-2358 VH2/VK3 IgG1 antibody (antibody, V domains shown)
VH: B1 VH with L11V
VL: B1 VL with L4M, E84A, T89V
With B8, the Relative IC50 (fold of chimeric PTA-2358) in assay [1] was greater than 3.

B9: PTA-2358 VH5/VK2 IgG1 antibody (antibody, V domains shown)
VH: B1 VH with L11V, L20V, K38R, L70I, N77S, L81M
VL: B1 VL with E84A
For B9, the Relative IC50 (fold of chimeric PTA-2358) in assay [1] is 1.68; in assay [2], 1.11.

B10: PTA-2358 VH1/VK3 IgG1 antibody (antibody, V domains shown)
VH: B1 VH
VL: B1 VL with L4M, E84A, T89V
In turn, B10 came in with a Relative IC50 (fold of chimeric PTA-2358) in assay [1] of 2.68.

B11: PTA-2358 VH3/VK1 IgG1 antibody (antibody, V domains shown)
VH: B1 VH with L11V, K38R
VL: B1 VL
For B11, the figures for the Relative IC50 (fold of chimeric PTA-2358) in assay [1] and in assay [2] were 1.09 and 1.12, respectively.

B12: PTA-2358 VH2/VK1 IgG1 antibody (antibody, V domains shown)
VH: B1 VH with L11V
VL: B1 VL
For B12, the Relative IC50 (fold of chimeric PTA-2358) in assay [1] is 1.28; in assay [2] it was 1.03.

B13: PTA-2358 VH5/VK1 IgG1 antibody (antibody, V domains shown)
VH: B1 VH with L11V, L20V, K38R, L70I, N77S, L81M
VL: B1 VL
Turning to B13, the Relative IC50 (fold of chimeric PTA-2358) in assay [1] came to 1.69; in assay [2] it was 1.65.

B14: PTA-2358 VH3/VK2 IgG1 antibody (antibody, V domains shown)
VH: B1 VH with L11V, K38R
VL: B1 VL with E84A
As to B14, in assay [1], the Relative IC50 (fold of chimeric PTA-2358) was determined as 1.81.

B15: PTA-2358 VH4/VK3 IgG1 antibody (antibody, V domains shown)
VH: B1 VH with L11V, K38R, N77S
VL: B1 VL with L4M, E84A, T89V
Molecule B15 had a Relative IC50 (fold of chimeric PTA-2358) in assay [1] greater than 3.

B16: PTA-2357 VH4/VK2 IgG1 antibody (antibody, V domains shown)
VH: QVQLVQSGAEVKKPGASVKVSCKGSGYPFTDYTIHWVRQAPGQGLEWIGHISTYSGNTNNNQKFKGRATMTVDKSTSTAYMELRSLRSDDTAVYYCARGDYYGSFYKFEYWGQGTTVTVSS
VL: DIKMTQSPSSLSASVGDRVTITCGASENIYGALNWFQRKPGKAPKLLIYGATNLADGMPSRFSGSGSGRDFTLTISSLQPEDFATYFCQNVLSIPYTFGQGTKLEIK
Consider B16, for which the results for the Relative IC50 (fold of chimeric PTA-2357) in assay [3] and in assay [4] were 1.34 and 1.5, respectively.

B17: PTA-2357 VH1/VK2 IgG1 antibody (antibody, V domains shown)
VH: B16 VH with A9P, V11L, P41H, T91S, A92T
VL: B16 VL
With B17, the Relative IC50 (fold of chimeric PTA-2357) in assay [3] stood at 1.06; in assay [4], 1.2.

B18: PTA-2357 VH5/VK2 IgG1 antibody (antibody, V domains shown)
VH: B16 VH with A68V
VL: B16 VL
As to B18, the Relative IC50 (fold of chimeric PTA-2357) in assay [4] came to 2.43.

B19: PTA-2357 VH4/VK3 IgG1 antibody (antibody, V domains shown)
VH: B16 VH
VL: B16 VL with K3Q
On to B19, for which, in assay [4], the Relative IC50 (fold of chimeric PTA-2357) was 2.06.

B20: PTA-2357 VH2/VK1 IgG1 antibody (antibody, V domains shown)
VH: B16 VH with P41H, T91S, A92T
VL: B16 VL with P40Q, K103Q
B20: the Relative IC50 (fold of chimeric PTA-2357) in assay [4] is greater than 3.

B21: PTA-2357 VH3/VK1 IgG1 antibody (antibody, V domains shown)
VH: B16 VH with A92T
VL: B16 VL with P40Q, K103Q
Turning to B21, the Relative IC50 (fold of chimeric PTA-2357) in assay [4] was greater than 3.

B22: PTA-2357 VH5/VK3 IgG1 antibody (antibody, V domains shown)
VH: B16 VH with A68V
VL: B16 VL with K3Q
Regarding B22, the Relative IC50 (fold of chimeric PTA-2357) in assay [4] was greater than 3.

B23: PTA-2357 VH5/VK1 IgG1 antibody (antibody, V domains shown)
VH: B16 VH with A68V
VL: B16 VL with P40Q, K103Q
On to B23, for which the Relative IC50 (fold of chimeric PTA-2357) in assay [4] was greater than 3.

B24: PTA-2357 VH1/VK1 IgG1 antibody (antibody, V domains shown)
VH: B16 VH with A9P, V11L, P41H, T91S, A92T
VL: B16 VL with P40Q, K103Q
As to B24, the Relative IC50 (fold of chimeric PTA-2357) in assay [4] was greater than 3.

B25: PTA-2357 VH2/VK3 IgG1 antibody (antibody, V domains shown)
VH: B16 VH with P41H, T91S, A92T
VL: B16 VL with K3Q
As for B25, the Relative IC50 (fold of chimeric PTA-2357) in assay [3] came out at 1.23; in assay [4] it was 0.82.

B26: PTA-2357 VH2/VK2 IgG1 antibody (antibody, V domains shown)
VH: B16 VH with P41H, T91S, A92T
VL: B16 VL
Consider B26, for which the results for the Relative IC50 (fold of chimeric PTA-2357) in assay [3] and in assay [4] were 1.16 and 1.36, respectively.

B27: PTA-2357 VH3/VK3 IgG1 antibody (antibody, V domains shown)
VH: B16 VH with A92T
VL: B16 VL with K3Q
Turning to B27, in assay [4], the Relative IC50 (fold of chimeric PTA-2357) was determined as 1.64.

B28: PTA-2357 VH4/VK1 IgG1 antibody (antibody, V domains shown)
VH: B16 VH
VL: B16 VL with P40Q, K103Q
Take B28: in assay [4], the Relative IC50 (fold of chimeric PTA-2357) is greater than 3.

B29: PTA-2357 VH3/VK2 IgG1 antibody (antibody, V domains shown)
VH: B16 VH with A92T
VL: B16 VL
B29: the Relative IC50 (fold of chimeric PTA-2357) is 1.06 in assay [3] and 1.57 in assay [4].

B30: PTA-2357 VH1/VK3 IgG1 antibody (antibody, V domains shown)
VH: B16 VH with A9P, V11L, P41H, T91S, A92T
VL: B16 VL with K3Q
On to B30, for which the Relative IC50 (fold of chimeric PTA-2357) in assay [4] stood at 2.
